From patent publication US20230250154A1 (CYTONICS, published 2023) come the findings set out here.

What all share (experiment): cell-based or functional assay
Assay [1] concerns the target Elastase.
Assay [2] addresses T1, Cathepsin G (UniProt P08311 21-244).
T1 sequence (looked up): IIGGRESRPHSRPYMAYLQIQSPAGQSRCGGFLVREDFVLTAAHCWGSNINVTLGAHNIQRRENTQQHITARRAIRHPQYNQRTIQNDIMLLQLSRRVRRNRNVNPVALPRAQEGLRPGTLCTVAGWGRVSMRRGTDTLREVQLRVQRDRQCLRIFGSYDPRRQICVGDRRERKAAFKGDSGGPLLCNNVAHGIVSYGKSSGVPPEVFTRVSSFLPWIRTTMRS

Assay [3] addresses T2, MMP1 (human, UniProt P03956 100-469, limits assumed).
T2 sequence (looked up): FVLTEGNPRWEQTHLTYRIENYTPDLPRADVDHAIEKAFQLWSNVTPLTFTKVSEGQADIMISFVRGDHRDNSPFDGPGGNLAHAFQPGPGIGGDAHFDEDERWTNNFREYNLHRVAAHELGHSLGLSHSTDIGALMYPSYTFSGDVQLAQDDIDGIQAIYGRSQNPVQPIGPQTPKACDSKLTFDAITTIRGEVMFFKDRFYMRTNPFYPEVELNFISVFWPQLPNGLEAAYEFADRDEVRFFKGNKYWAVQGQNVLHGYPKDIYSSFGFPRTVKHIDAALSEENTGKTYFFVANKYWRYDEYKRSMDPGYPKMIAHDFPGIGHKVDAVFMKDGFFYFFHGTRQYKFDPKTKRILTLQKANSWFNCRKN

Assay [4] concerns the target T3, MMP2 (human, UniProt P08253 110-660, limits assumed).
T3 sequence (looked up): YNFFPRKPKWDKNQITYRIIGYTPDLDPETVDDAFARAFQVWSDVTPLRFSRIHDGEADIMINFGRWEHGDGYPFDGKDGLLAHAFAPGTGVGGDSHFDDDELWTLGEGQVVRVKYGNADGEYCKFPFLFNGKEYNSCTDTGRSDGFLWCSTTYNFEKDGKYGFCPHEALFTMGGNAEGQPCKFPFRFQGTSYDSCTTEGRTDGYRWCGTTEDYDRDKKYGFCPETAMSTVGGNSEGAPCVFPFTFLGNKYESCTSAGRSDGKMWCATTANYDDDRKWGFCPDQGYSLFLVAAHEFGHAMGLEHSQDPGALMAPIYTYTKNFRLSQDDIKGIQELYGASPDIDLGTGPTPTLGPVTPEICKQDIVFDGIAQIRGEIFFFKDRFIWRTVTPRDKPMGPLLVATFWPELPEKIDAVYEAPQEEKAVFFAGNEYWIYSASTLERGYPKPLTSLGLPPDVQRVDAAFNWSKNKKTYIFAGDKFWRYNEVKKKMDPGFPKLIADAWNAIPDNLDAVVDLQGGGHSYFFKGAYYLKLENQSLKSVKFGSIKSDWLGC

For assay [5], the target named is MMP8 (human, UniProt P22894 101-467, limits assumed).
Chain of MMP8 (P22894 101-467 limits assumed): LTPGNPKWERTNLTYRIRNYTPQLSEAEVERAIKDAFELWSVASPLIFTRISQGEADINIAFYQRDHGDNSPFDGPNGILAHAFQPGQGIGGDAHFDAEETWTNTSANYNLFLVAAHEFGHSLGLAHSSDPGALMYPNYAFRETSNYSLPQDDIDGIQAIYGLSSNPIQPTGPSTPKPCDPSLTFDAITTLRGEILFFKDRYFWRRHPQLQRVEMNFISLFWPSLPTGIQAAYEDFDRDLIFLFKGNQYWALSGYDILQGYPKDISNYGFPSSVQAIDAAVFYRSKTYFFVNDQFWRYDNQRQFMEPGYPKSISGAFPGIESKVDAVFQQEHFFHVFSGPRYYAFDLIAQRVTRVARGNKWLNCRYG

B1: Variant A2M, bait region SEQ ID NO 128 (other)
chain: SVSGKPQYMVLVPSLLHTETTEKGCVLLSYLNETVTVSASLESVRGNRSLFTDLEAENDVLHCVAFAVPKSSSNEEVMFLTVQVKGPTQEFKKRTTVMVKNEDSLVFVQTDKSIYKPGQTVKFRVVSMDENFHPLNELIPLVYIQDPKGNRIAQWQSFQLEGGLKQFSFPLSSEPFQGSYKVVVQKKSGGRTEHPFTVEEFVLPKFEVQVTVPKIITILEEEMNVSVCGLYTYGKPVPGHVTVSICRKYSDASDCHGEDSQAFCEKFSGQLNSHGCFYQQVKTKVFQLKRKEYEMKLHTEAQIQEEGTVVELTGRQSSEITRTITKLSFVKVDSHFRQGIPFFGQVRLVDGKGVPIPNKVIFIRGNEANYYSNATTDEHGLVQFSINTTNVMGTSLTVRVNYKDRSPCYGYQWVSEEHEEAHHTAYLVFSPSKSFVHLEPMSHELPCGHTQTVQAHYILNGGTLLGLKKLSFYYLIMAKGGIVRTGTHGLLVKQEDMKGHFSISIPVKSDIAPVARLLIYAVLPTGDVIGDSAKYDVENCLANKVDLSFSPSQSLPASHAHLRVTAAPQSVCALRAVDQSVLLMKPDAELSASSVYNLLPEKDLTGFPGPLNDQDDEDCINRHNVYINGITYTPVSSTNEKDMYSFLEDMGLKAFTNSKIRKPKMCPQLEQYEMHGPSELEGRGSEAIPMSIPTKEEEGLGSIPENFFGVVEEPHTKLRKYFPETWIWDLVVVNSAGVAEVGVTVPDTITEWKAGAFCLSEDAGLGISSTASLRAFQPFFVELTMPYSVIRGEAFTLKATVLNYLPKCIRVSVQLEASPAFLAVPVEKEQAPHCICANGRQTVSWAVTPKSLGNVNFTVSAEALESQELCGTEVPSVPEHGRKDTVIKPLLVEPEGLEKETTFNSLLCPSGGEVSEELSLKLPPNVVEESARASVSVLGDILGSAMQNTQNLLQMPYGCGEQNMVLFAPNIYVLDYLNETQQLTPEIKSKAIGYLNTGYQRQLNYKHYDGSYSTFGERYGRNQGNTWLTAFVLKTFAQARAYIFIDEAHITQALIWLSQRQKDNGCFRSSGSLLNNAIKGGVEDEVTLSAYITIALLEIPLTVTHPVVRNALFCLESAWKTAQEGDHGSHVYTKALLAYAFALAGNQDKRKEVLKSLNEEAVKKDNSVHWERPQKPKAPVGHFYEPQAPSAEVEMTSYVLLAYLTAQPAPTSEDLTSATNIVKWITKQQNAQGGFSSTQDTVVALHALSKYGAATFTRTGKAAQVTIQSSGTFSSKFQVDNNNRLLLQQVSLPELPGEYSMKVTGEGCVYLQTSLKYNILPEKEEFPFALGVQTLPQTCDEPKAHTSFQISLSVSYTGSRSASNMAIVDVKMVSGFIPLKPTVKMLERSNHVSRTEVSSNHVLIYLDKVSNQTLSLFFTVLQDVPVRDLKPAIVKVYDYYETDEFAIAEYNAPCSKDLGNADYKDDDDKGASHHHHHH
As for B1, the “Protease Inhibition (% of WT)” value is 100 % of WT in assay [1], 225 % of WT in assay [2], 400 % of WT in assay [3] and 20 % of WT in assay [4].

B2: Variant A2M, bait region SEQ ID NO 129 (other)
chain: SVSGKPQYMVLVPSLLHTETTEKGCVLLSYLNETVTVSASLESVRGNRSLFTDLEAENDVLHCVAFAVPKSSSNEEVMFLTVQVKGPTQEFKKRTTVMVKNEDSLVFVQTDKSIYKPGQTVKFRVVSMDENFHPLNELIPLVYIQDPKGNRIAQWQSFQLEGGLKQFSFPLSSEPFQGSYKVVVQKKSGGRTEHPFTVEEFVLPKFEVQVTVPKIITILEEEMNVSVCGLYTYGKPVPGHVTVSICRKYSDASDCHGEDSQAFCEKFSGQLNSHGCFYQQVKTKVFQLKRKEYEMKLHTEAQIQEEGTVVELTGRQSSEITRTITKLSFVKVDSHFRQGIPFFGQVRLVDGKGVPIPNKVIFIRGNEANYYSNATTDEHGLVQFSINTTNVMGTSLTVRVNYKDRSPCYGYQWVSEEHEEAHHTAYLVFSPSKSFVHLEPMSHELPCGHTQTVQAHYILNGGTLLGLKKLSFYYLIMAKGGIVRTGTHGLLVKQEDMKGHFSISIPVKSDIAPVARLLIYAVLPTGDVIGDSAKYDVENCLANKVDLSFSPSQSLPASHAHLRVTAAPQSVCALRAVDQSVLLMKPDAELSASSVYNLLPEKDLTGFPGPLNDQDDEDCINRHNVYINGITYTPVSSTNEKDMYSFLEDMGLKAFTNSKIRKPKMCPQLEQYEMHGPEAIPMSIPTEGEGEGEGIPENFFGVSEDLVVQIVEEPHTKLRKYFPETWIWDLVVVNSAGVAEVGVTVPDTITEWKAGAFCLSEDAGLGISSTASLRAFQPFFVELTMPYSVIRGEAFTLKATVLNYLPKCIRVSVQLEASPAFLAVPVEKEQAPHCICANGRQTVSWAVTPKSLGNVNFTVSAEALESQELCGTEVPSVPEHGRKDTVIKPLLVEPEGLEKETTFNSLLCPSGGEVSEELSLKLPPNVVEESARASVSVLGDILGSAMQNTQNLLQMPYGCGEQNMVLFAPNIYVLDYLNETQQLTPEIKSKAIGYLNTGYQRQLNYKHYDGSYSTFGERYGRNQGNTWLTAFVLKTFAQARAYIFIDEAHITQALIWLSQRQKDNGCFRSSGSLLNNAIKGGVEDEVTLSAYITIALLEIPLTVTHPVVRNALFCLESAWKTAQEGDHGSHVYTKALLAYAFALAGNQDKRKEVLKSLNEEAVKKDNSVHWERPQKPKAPVGHFYEPQAPSAEVEMTSYVLLAYLTAQPAPTSEDLTSATNIVKWITKQQNAQGGFSSTQDTVVALHALSKYGAATFTRTGKAAQVTIQSSGTFSSKFQVDNNNRLLLQQVSLPELPGEYSMKVTGEGCVYLQTSLKYNILPEKEEFPFALGVQTLPQTCDEPKAHTSFQISLSVSYTGSRSASNMAIVDVKMVSGFIPLKPTVKMLERSNHVSRTEVSSNHVLIYLDKVSNQTLSLFFTVLQDVPVRDLKPAIVKVYDYYETDEFAIAEYNAPCSKDLGNADYKDDDDKGASHHHHHH
As for B2, the “Protease Inhibition (% of WT)” value was 75 % of WT in assay [1], 200 % of WT in assay [3] and 20 % of WT in assay [4].

B3: Variant A2M, bait region SEQ ID NO 134 (other)
chain: SVSGKPQYMVLVPSLLHTETTEKGCVLLSYLNETVTVSASLESVRGNRSLFTDLEAENDVLHCVAFAVPKSSSNEEVMFLTVQVKGPTQEFKKRTTVMVKNEDSLVFVQTDKSIYKPGQTVKFRVVSMDENFHPLNELIPLVYIQDPKGNRIAQWQSFQLEGGLKQFSFPLSSEPFQGSYKVVVQKKSGGRTEHPFTVEEFVLPKFEVQVTVPKIITILEEEMNVSVCGLYTYGKPVPGHVTVSICRKYSDASDCHGEDSQAFCEKFSGQLNSHGCFYQQVKTKVFQLKRKEYEMKLHTEAQIQEEGTVVELTGRQSSEITRTITKLSFVKVDSHFRQGIPFFGQVRLVDGKGVPIPNKVIFIRGNEANYYSNATTDEHGLVQFSINTTNVMGTSLTVRVNYKDRSPCYGYQWVSEEHEEAHHTAYLVFSPSKSFVHLEPMSHELPCGHTQTVQAHYILNGGTLLGLKKLSFYYLIMAKGGIVRTGTHGLLVKQEDMKGHFSISIPVKSDIAPVARLLIYAVLPTGDVIGDSAKYDVENCLANKVDLSFSPSQSLPASHAHLRVTAAPQSVCALRAVDQSVLLMKPDAELSASSVYNLLPEKDLTGFPGPLNDQDDEDCINRHNVYINGITYTPVSSTNEKDMYSFLEDMGLKAFTNSKIRKPKMCPQLEQYEMHGPSELEGRGSIPENFFGVKEEEGLGSSEDLVVQIVEEPHTKLRKYFPETWIWDLVVVNSAGVAEVGVTVPDTITEWKAGAFCLSEDAGLGISSTASLRAFQPFFVELTMPYSVIRGEAFTLKATVLNYLPKCIRVSVQLEASPAFLAVPVEKEQAPHCICANGRQTVSWAVTPKSLGNVNFTVSAEALESQELCGTEVPSVPEHGRKDTVIKPLLVEPEGLEKETTFNSLLCPSGGEVSEELSLKLPPNVVEESARASVSVLGDILGSAMQNTQNLLQMPYGCGEQNMVLFAPNIYVLDYLNETQQLTPEIKSKAIGYLNTGYQRQLNYKHYDGSYSTFGERYGRNQGNTWLTAFVLKTFAQARAYIFIDEAHITQALIWLSQRQKDNGCFRSSGSLLNNAIKGGVEDEVTLSAYITIALLEIPLTVTHPVVRNALFCLESAWKTAQEGDHGSHVYTKALLAYAFALAGNQDKRKEVLKSLNEEAVKKDNSVHWERPQKPKAPVGHFYEPQAPSAEVEMTSYVLLAYLTAQPAPTSEDLTSATNIVKWITKQQNAQGGFSSTQDTVVALHALSKYGAATFTRTGKAAQVTIQSSGTFSSKFQVDNNNRLLLQQVSLPELPGEYSMKVTGEGCVYLQTSLKYNILPEKEEFPFALGVQTLPQTCDEPKAHTSFQISLSVSYTGSRSASNMAIVDVKMVSGFIPLKPTVKMLERSNHVSRTEVSSNHVLIYLDKVSNQTLSLFFTVLQDVPVRDLKPAIVKVYDYYETDEFAIAEYNAPCSKDLGNADYKDDDDKGASHHHHHH
On to B3, for which the “Protease Inhibition (% of WT)” value in assay [1] was 300 % of WT; in assay [2], 250 % of WT; in assay [3], 200 % of WT; in assay [5], 200 % of WT.
